Values joined by “and” are separate entries in the source; they are usually repeats but may differ in a detail not shown here. Identical values can stand only once.
Conditions: Aspergillus oryzae (strain ATCC 42149 / RIB 40), Thermal, DSC, whole UniProt chain shown
[1] = pH 0.36, glycine 0.2 N, HCl, reversible: yes
[2] = pH 1.05, HCl, NaCl 0.2 N, reversible: yes
[3] = pH 2.02, glycine 0.2 N, reversible: yes
[4] = pH 2.8, glycine 0.2 N, reversible: yes
[5] = pH 3.28, glycine 0.2 N, reversible: yes
[6] = pH 4.04, acetate 0.2 N, reversible: no
[7] = pH 5, acetate 0.2 N, reversible: no
[8] = pH 6.23, acetate 0.2 N, reversible: no
[9] = pH 7, None, NaCl 0.2 N, reversible: no
[10] = pH 7.8, None, NaCl 0.2 N, reversible: no

B1: Guanyl-specific ribonuclease T1 wild type, P00651 (protein)
chain: MMYSKLLTLTTLLLPTALALPSLVERACDYTCGSNCYSSSDVSTAQAAGYQLHEDGETVGSNSYPHKYNNYEGFDFSVSSPYYEWPILSSGDVYSGGSPGADRVVFNENNQLAGVITHTGASGNNFVECT
pH 0.36, HCl, reversible: yes
  Tm: 25 °C
  unfolding enthalpy (calorimetric): 48.7 kcal/mol
[1]
  Tm: 31.5 °C
  heat capacity change of unfolding: 1.9 kcal/mol/K
  unfolding enthalpy (calorimetric): 61.2 kcal/mol
  unfolding enthalpy (van 't Hoff): 62 kcal/mol
[2]
  Tm: 25 °C
  unfolding enthalpy (calorimetric): 49.1 kcal/mol
[3]
  Tm: 31.2 °C
  heat capacity change of unfolding: 1.98 kcal/mol/K
  unfolding enthalpy (calorimetric): 65.6 kcal/mol
  unfolding enthalpy (van 't Hoff): 67 kcal/mol
[4]
  heat capacity change of unfolding: 2.11 kcal/mol/K
  unfolding enthalpy (calorimetric): 87.7 kcal/mol and 54.8 kcal/mol
  unfolding enthalpy (van 't Hoff): 68 kcal/mol
[5]
  Tm: 25 °C
  unfolding enthalpy (calorimetric): 63.4 kcal/mol
[6]
  heat capacity change of unfolding: 2.08 kcal/mol/K
  unfolding enthalpy (calorimetric): 126 kcal/mol and 69.2 kcal/mol
  unfolding enthalpy (van 't Hoff): 64 kcal/mol
[7]
  heat capacity change of unfolding: 2.25 kcal/mol/K
  unfolding enthalpy (calorimetric): 151 kcal/mol and 77.2 kcal/mol
  unfolding enthalpy (van 't Hoff): 60 kcal/mol
[8]
  heat capacity change of unfolding: 2.05 kcal/mol/K
  unfolding enthalpy (calorimetric): 156 kcal/mol and 81.2 kcal/mol
  unfolding enthalpy (van 't Hoff): 66 kcal/mol
[9]
  heat capacity change of unfolding: 2.07 kcal/mol/K
  unfolding enthalpy (calorimetric): 168 kcal/mol and 92.9 kcal/mol
  unfolding enthalpy (van 't Hoff): 88 kcal/mol
[10]
  heat capacity change of unfolding: 2 kcal/mol/K
  unfolding enthalpy (calorimetric): 178 kcal/mol and 106 kcal/mol
  unfolding enthalpy (van 't Hoff): 72 kcal/mol

— FireProtDB (doi:10.1021/bi00815a015)
